Positions of bridges follow the written chain, without caps; N, C: chain ends. No end group written: not given here. *: point of attachment. NHNH2 = NN*
Biological target: T1, REFACTO® (Homo sapiens, UniProt P00451)
T1 construct: amino acids 1-743 and 1638 through 2332 of human factor VIII; purchased Genetics Institute, Inc. (Cambridge, Mass.)
T1 sequence (P00451 20-762): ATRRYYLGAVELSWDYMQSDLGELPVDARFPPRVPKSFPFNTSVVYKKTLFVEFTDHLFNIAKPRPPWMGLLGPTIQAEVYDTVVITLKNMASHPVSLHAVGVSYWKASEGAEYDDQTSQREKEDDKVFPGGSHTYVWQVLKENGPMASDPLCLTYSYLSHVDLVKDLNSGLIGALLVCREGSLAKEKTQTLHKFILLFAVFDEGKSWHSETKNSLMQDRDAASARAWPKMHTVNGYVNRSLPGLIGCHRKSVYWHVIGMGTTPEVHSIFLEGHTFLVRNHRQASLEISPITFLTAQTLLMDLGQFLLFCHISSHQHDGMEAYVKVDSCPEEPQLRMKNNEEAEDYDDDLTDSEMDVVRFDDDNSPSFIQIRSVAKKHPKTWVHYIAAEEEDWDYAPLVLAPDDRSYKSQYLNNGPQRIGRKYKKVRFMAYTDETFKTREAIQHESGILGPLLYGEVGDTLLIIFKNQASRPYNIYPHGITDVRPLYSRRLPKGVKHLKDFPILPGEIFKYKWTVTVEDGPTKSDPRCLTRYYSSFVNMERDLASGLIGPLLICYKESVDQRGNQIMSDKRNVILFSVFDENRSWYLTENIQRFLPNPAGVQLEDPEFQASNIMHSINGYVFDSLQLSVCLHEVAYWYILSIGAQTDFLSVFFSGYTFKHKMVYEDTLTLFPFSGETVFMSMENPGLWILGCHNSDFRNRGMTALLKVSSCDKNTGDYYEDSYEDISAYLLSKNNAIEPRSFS
T1 sequence (P00451 1657-2351): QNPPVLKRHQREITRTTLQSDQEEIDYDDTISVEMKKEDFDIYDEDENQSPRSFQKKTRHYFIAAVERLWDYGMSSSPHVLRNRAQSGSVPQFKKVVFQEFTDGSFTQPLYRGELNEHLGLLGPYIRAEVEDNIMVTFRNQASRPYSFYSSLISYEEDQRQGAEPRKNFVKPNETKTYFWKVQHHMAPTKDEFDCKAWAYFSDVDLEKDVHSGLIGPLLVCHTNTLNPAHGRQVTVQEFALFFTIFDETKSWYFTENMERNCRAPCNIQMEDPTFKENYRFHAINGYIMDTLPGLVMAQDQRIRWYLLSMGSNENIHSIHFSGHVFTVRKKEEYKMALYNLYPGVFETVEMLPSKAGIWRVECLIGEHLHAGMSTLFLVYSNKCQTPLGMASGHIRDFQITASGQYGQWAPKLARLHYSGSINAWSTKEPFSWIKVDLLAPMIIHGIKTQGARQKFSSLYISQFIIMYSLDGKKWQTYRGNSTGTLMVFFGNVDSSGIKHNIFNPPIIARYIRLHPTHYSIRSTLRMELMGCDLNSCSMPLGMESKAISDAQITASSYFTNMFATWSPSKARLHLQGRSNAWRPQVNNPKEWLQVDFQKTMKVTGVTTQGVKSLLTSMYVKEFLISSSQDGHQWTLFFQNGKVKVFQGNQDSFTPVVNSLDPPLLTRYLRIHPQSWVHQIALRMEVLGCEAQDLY
Assay: Batch binding and elution of REFACTO® with immobilized polypeptide ligands (factor VIII sandwich ELISA)
Conditions: for % of Input Recovered in: Eluate: Buffer A, 50% ethylene glycol, pH 6.3, 15 minutes; for % of Input Recovered in: Unbound: REFACTO® ~50 U in Buffer 1, 1 h RT, supernatant after binding; for % of Input Recovered in: Total: Unbound, Wash and Eluate fractions together; for % of Input Recovered in: Wash: one wash with Buffer 1
Excerpt: A commercial ELISA kit (IMUBIND fVIII ELISA kit, Product #884, American, Inc., Greenwich, Conn.) developed to detect factor VIII was used according to the manufacturer's specifications in order to detect both the REFACTO® and the nhfVIII targets. The kit employs a sandwich ELISA assay in which the target is captured by an immobilized monoclonal antibody and the captured target is detected with a second monoclonal antibody-horseradish peroxidase (HRP) conjugate. Addition of the peroxidase substrate and its subsequent reaction with the HRP produces a blue color (detected at 630 nm) which changes to yellow (detected at 450 nm) on addition of the 0.5N sulfuric acid stop solution. Color response is calibrated with factor VIII standards provided by the manufacturer.
REFACTO® binding was tested in Buffer 1. The binding of both REFACTO® and nfhVIII were tested using three affinity resins prepared as in Example II, using the affinity peptides CS-454, CS-456, and CS-458 immobilized on Toyopearl Formyl 650-M medium. Ligand density for each polypeptide was 1.79 mg/ml (0.67 μmol/ml), 3.69 mg/ml ([…]) and 3.15 mg/ml (1.17 μmol/ml) respectively.
For each of the three immobilized peptides tested, peptide-beads from […] of a 50% slurry of Toyopearl-coupled polypeptide suspension were centrifuged briefly (30 seconds at 2000×g at room temperature), the supernatant fluid was removed, and the beads (pellets) were washed two times. For each wash, the beads were resuspended in 500 μl of Buffer 1 and centrifuged as before.
The stock solution of REFACTO® was diluted to a final concentration of 200 U/ml in Buffer 1 and 250 μl of the diluted solution (˜50 U total) was added to a washed pellet of each of the peptide-beads. The suspension was incubated on an end-over-end mixer at RT for one hour, after which binding period the beads were pelleted by centrifugation (30 seconds, 2000×g) and the supernatant solutions, representing the unbound fraction (“Unbound” in Table 7, below), were removed and retained for assay of unbound factor VIII activity.
The pelleted beads were washed one time by adding 250 μl of Buffer 1, mixed briefly and the suspension centrifuged as before. The supernatant solutions (“Wash” in Table 7) were removed and retained for assay of factor VIII activity.
The washed pellets were resuspended in 250 μl of Buffer A (20 mM L-Histidine-HCl, 250 mM NaCl, 20 mM CaCl2, 0.01% Tween 80, 50% ethylene glycol, pH 6.3) and incubated on an end-over-end mixer for 15 minutes at room temperature. At the end of the elution period, the suspensions were centrifuged as above. The supernatant solutions (“Eluate” in Table 7) were removed and retained for assay of eluted factor VIII activity.
The starting (diluted) REFACTO® solution (Input) and each sample (Unbound, Wash, and Eluate) taken as described above were diluted 1:1400 in Assay Diluent (provided with kit), then subjected to ELISA using the commercial factor VIII assay kit.

Substance: AEGTGDFCWVFAFDHCHDPGPEGGGS-NHNH2 (disulfide 8-16 (inferred)) [CS-458]
- % of Input Recovered in: Eluate: 47%
- % of Input Recovered in: Unbound: 20%
- % of Input Recovered in: Total: 76%
- % of Input Recovered in: Wash: 10%

Substance: AEGTGDFGCSWLFPCPFDPGPEGGGS-NHNH2 (disulfide 9-15 (inferred)) [CS-456]
- % of Input Recovered in: Eluate: 24%
- % of Input Recovered in: Unbound: 47%
- % of Input Recovered in: Total: 91%
- % of Input Recovered in: Wash: 20%

Substance: AEGTGDHLCGAWFRPCDADPGPEGGGS-NHNH2 (disulfide 9-16 (inferred)) [CS-454]
- % of Input Recovered in: Eluate: 49%
- % of Input Recovered in: Unbound: 24%
- % of Input Recovered in: Total: 85%

Source: patent US9156883B2, “Binding molecules for human factor VIII and factor VIII-like proteins” (DYAX CORP., priority 1999, dated 2015)
